Source: patent US20140248254

Target: G-Actin protein

B1: Mus AChE protein (AChE 1-548AA, mouse) (protein)
chain: EGREDPQLLVRVRGGQLRGIRLKAPGGPVSAFLGIPFAEPPVGSRRFMPPEPKRPWSGVLDATTFQNVCYQYVDTLYPGFEGTEMWNPNRELSEDCLYLNVWTPYPRPASPTPVLIWIYGGGFYSGAASLDVYDGRFLAQVEGAVLVSMNYRVGTFGFLALPGSREAPGNVGLLDQRLALQWVQENIAAFGGDPMSVTLFGESAGAASVGMHILSLPSRSLFHRAVLQSGTPNGPWATVSAGEARRRATLLARLVGCPPGGAGGNDTELIACLRTRPAQDLVDHEWHVLPQESIFRFSFVPVVDGDFLSDTPEALINTGDFQDLQVLVGVVKDEGSYFLVYGVPGFSKDNESLISRAQFLAGVRIGVPQASDLAAEAVVLHYTDWLHPEDPTHLRDAMSAVVGDHNVVCPVAQLAGRLAAQGARVYAYIFEHRASTLTWPLWMGVPHGYEIEFIFGLPLDPSLNYTTEERIFAQRLMKYWTNFARTGDPNDPRDSKSPQWPPYTTAAQQYVSLNLKP
  cleaving of plasmid DNA by AChE (agarose gel) after pre-incubation with G-Actin: it almost had no effect on cleaving ability of AChE on DNA
